Reference: patent US20240400715A1 (VIBRANT PHARMA, published 2024)

How the values were obtained:
[1] = target: T1, human CD3ε/δ (ACRO systems, CDD-H52W1) (human, UniProt P07766 23-126; P04234 22-105); experiment: serum-stability ELISA, Day 6 vs Day 0
T1 construct: bought recombinant heterodimer; also called human CD3 epsilon/delta; Human CD3ε/CD3δ
Description: (§1) The samples to be tested were centrifuged at 4° C. at 12000 rpm for 30 minutes to remove the precipitate. 200 μl of each sample to be tested (0.5 mg/ml) was collected in a 1.5 ml Eppendorf tube. An equal volume of human serum (GEMINI, H2OYOOK) was added, mixed thoroughly, and the mixture was incubated in a 37° C. constant temperature CO₂ incubator. For a total of 10 days, 40 μl samples was aspirated every day and stored at −20° C.
(§2) Enzyme-linked immunosorbent assay (ELISA) was used to test the bispecific antibodies' binding to human CEA and human CD3 epsilon/delta antigen. The steps are as follows: the antigen human CD3ε/δ (ACRO systems, CDD-H52W1) and the recombinant tumor antigen human CEA (CEACAM-5/CD66e, ACRO systems, CE5-H5226) were diluted to 1 μg/ml with PBS, and then added to the 96-well plate at 100 μl per well. The wells were coated overnight at 4° C. After washing 3 times with 0.05% PBST, 200 μl 5% skimmed milk powder was added to each well and incubated at 37° C. for 2 h. After washing 3 times with 0.05% PBST, 100 μl primary antibody sample (10 μg/ml) was added to each well, and incubated at 37° C. for 2 h. After washing 3 times with 0.05% PBST, 100 μl (1:6000) diluted secondary antibody goat anti-human Fc-HRP (sigma, A2170) was added to each well, incubated at room temperature for 1 h. After washing 8 times with 0.05% PBST, 50 μl TMB color developing solution was added to each well, and incubated at room temperature for 10-15 min. 50 μl 1 mM HCl was added to each well to stop the color development. 450 nm Absorbance (OD) was read.
(§3) The binding of antibodies to antigen was calculated according to the following formula: Binding (%)=[(ODdayn−ODb)/(ODday0−ODb)]×100%. ODdayn: experimental well (the protein was stored in the serum for n days); ODday0: control well (the protein was not stored in the serum); ODb: blank well (no primary antibody added).

[2] = target: T1, human CD3ε/δ (ACRO systems, CDD-H52W1); experiment: serum-stability ELISA, Day 9 vs Day 0
Description: as §1, §2, §3

[3] = target: T1, human CD3ε/δ (ACRO systems, CDD-H52W1); experiment: serum-stability ELISA, Day 2 vs Day 0
Description: as §1, §2, §3

[4] = target: T1, human CD3ε/δ (ACRO systems, CDD-H52W1); experiment: serum-stability ELISA, Day 7 vs Day 0
Description: as §1, §2, §3

[5] = target: T1, human CD3ε/δ (ACRO systems, CDD-H52W1); experiment: serum-stability ELISA, Day 1 vs Day 0
Description: as §1, §2, §3

[6] = target: T1, human CD3ε/δ (ACRO systems, CDD-H52W1); experiment: serum-stability ELISA, Day 0 (reference)
[7] = target: T1, human CD3ε/δ (ACRO systems, CDD-H52W1); experiment: serum-stability ELISA, Day 10 vs Day 0
Description: as §1, §2, §3

[8] = target: T1, human CD3ε/δ (ACRO systems, CDD-H52W1); experiment: serum-stability ELISA, Day 5 vs Day 0
Description: as §1, §2, §3

| Binder | Binding % [1] [%] | Binding % [2] [%] | Binding % [3] [%] | Binding % [4] [%] | Binding % [5] [%] | Binding % [6] [%] | Binding % [7] [%] | Binding % [8] [%] |
| --- | --- | --- | --- | --- | --- | --- | --- | --- |
| 308 (TA3), configuration of FIG. 1X (bispecific antibody, not shown: kappa light chain constant domain (CL)) heavy: EVQLVESGGGLVQPGGSLRLSCAASGYSFTGYTMNWVRQAPGKGLEWVALINPYKGVSTYNQKFKDRFTISVDKSKNTAYLQMNSLRAEDTAVYYCARSGYYGDSDWYFDVWGQGTLVTVSSASTKGPSVFPLAPCSRSTSESTAALGCLVKDYFPEPVTVSWNSGALTSGVHTFPAVLQSSGLYSLSSVVTVPSSSLGTKTYTCNVDHKPSNTKVDKRVESKYGPPCPPCPAPEAAGGPSVFLFPPKPKDTLMISRTPEVTCVVVDVSQEDPEVQFNWYVDGVEVHNAKTKPREEQFNSTYRVVSVLTVLHQDWLNGKEYKCKVSNKGLPSSIEKTISKAKGQPREPQVYTLPPCQEEMTKNQVSLWCLVKGFYPSDIAVEWESNGQPENNYKTTPPVLDSDGSFFLYSRLTVDKSRWQEGNVFSCSVMHEALHNHYTQKSLSLSLGGGGSGGGGSEVQLVESGGGFVQAGESLTLSCTSSTLTFTPYRMAWYRQAPGKQRDLVADISSGDGRTTNYADFAKGRFTISRDNIKNTVFLRMTNLKPEDTAVYYCNTFVSFVGIARSWGQGTQVTVSS ESKYGPPCPPCPAPEAAGGPSVFLFPPKPKDTLMISRTPEVTCVVVDVSQEDPEVQFNWYVDGVEVHNAKTKPREEQFNSTYRVVSVLTVLHQDWLNGKEYKCKVSNKGLPSSIEKTISKAKGQPREPQVCTLPPSQEEMTKNQVSLSCAVKGFYPSDIAVEWESNGQPENNYKTTPPVLDSDGSFFLVSRLTVDKSRWQEGNVFSCSVMHEALHNRFTQKSLSLSL light: DIQMTQSPSSLSASVGDRVTITCRASQDIRNYLNWYQQKPGKAPKLLIYYTSRLESGVPSRFSGSGSGTDYTLTISSLQPEDFATYYCQQGNTLPWTFGQGTKVEIK | 103 | 110 | 100 | 109 | 106 | 100 | 103 | 107 |
| 311 (TA6), configuration of FIG. 1X (bispecific antibody, not shown: kappa light chain constant domain (CL)) heavy: EVQLVQSGAEVKKPGASVKVSCKASGYTFTNYYIHWVRQAPGQGLEWIGWIYPGDGNTKYNEKFKGRATLTADTSTSTAYLELSSLRSEDTAVYYCARDSYSNYYFDYWGQGTLVTVSSASTKGPSVFPLAPCSRSTSESTAALGCLVKDYFPEPVTVSWNSGALTSGVHTFPAVLQSSGLYSLSSVVTVPSSSLGTKTYTCNVDHKPSNTKVDKRVESKYGPPCPPCPAPEAAGGPSVFLFPPKPKDTLMISRTPEVTCVVVDVSQEDPEVQFNWYVDGVEVHNAKTKPREEQFNSTYRVVSVLTVLHQDWLNGKEYKCKVSNKGLPSSIEKTISKAKGQPREPQVYTLPPCQEEMTKNQVSLWCLVKGFYPSDIAVEWESNGQPENNYKTTPPVLDSDGSFFLYSRLTVDKSRWQEGNVFSCSVMHEALHNHYTQKSLSLSLGGGGSGGGGSEVQLVESGGGFVQAGESLTLSCTSSTLTFTPYRMAWYRQAPGKQRDLVADISSGDGRTTNYADFAKGRFTISRDNIKNTVFLRMTNLKPEDTAVYYCNTFVSFVGIARSWGQGTQVTVSS ESKYGPPCPPCPAPEAAGGPSVFLFPPKPKDTLMISRTPEVTCVVVDVSQEDPEVQFNWYVDGVEVHNAKTKPREEQFNSTYRVVSVLTVLHQDWLNGKEYKCKVSNKGLPSSIEKTISKAKGQPREPQVCTLPPSQEEMTKNQVSLSCAVKGFYPSDIAVEWESNGQPENNYKTTPPVLDSDGSFFLVSRLTVDKSRWQEGNVFSCSVMHEALHNRFTQKSLSLSL light: DIVMTQSPDSLAVSLGERATINCKSSQSLLNSRTRKNYLAWYQQKPGQPPKLLIYWASTRESGVPDRFSGSGSGTDFTLTISSLQAEDVAVYYCTQSFILRTFGQGTKVEIK | 104 | 100 | 105 | 101 | 105 | 100 | 101 | 103 |

The next lines start with the values.

| Binding % [1] [%] | Binding % [2] [%] | Binding % [3] [%] | Binding % [4] [%] | Binding % [5] [%] | Binding % [6] [%] | Binding % [7] [%] | Binding % [8] [%] | Binder |
| --- | --- | --- | --- | --- | --- | --- | --- | --- |
| 93.2 | 90.3 | 90.2 | 89.2 | 96.1 | 100 | 101 | 92.2 | 310 (TA5), configuration of FIG. 1X (bispecific antibody, VL row printed 'TAS VL', read as TA5 VL; full chains assembled from parts; not shown: kappa light chain constant domain (CL)) heavy: DVQLVQSGAEVKKPGASVKVSCKASGYTFTRYTMHWVRQAPGQGLEWIGYINPSRGYTNYADSVKGRFTITTDKSTSTAYMELSSLRSEDTATYYCARYYDDHYCLDYWGQGTTVTVSSASTKGPSVFPLAPCSRSTSESTAALGCLVKDYFPEPVTVSWNSGALTSGVHTFPAVLQSSGLYSLSSVVTVPSSSLGTKTYTCNVDHKPSNTKVDKRVESKYGPPCPPCPAPEAAGGPSVFLFPPKPKDTLMISRTPEVTCVVVDVSQEDPEVQFNWYVDGVEVHNAKTKPREEQFNSTYRVVSVLTVLHQDWLNGKEYKCKVSNKGLPSSIEKTISKAKGQPREPQVYTLPPCQEEMTKNQVSLWCLVKGFYPSDIAVEWESNGQPENNYKTTPPVLDSDGSFFLYSRLTVDKSRWQEGNVFSCSVMHEALHNHYTQKSLSLSLGGGGSGGGGSEVQLVESGGGFVQAGESLTLSCTSSTLTFTPYRMAWYRQAPGKQRDLVADISSGDGRTTNYADFAKGRFTISRDNIKNTVFLRMTNLKPEDTAVYYCNTFVSFVGIARSWGQGTQVTVSS ESKYGPPCPPCPAPEAAGGPSVFLFPPKPKDTLMISRTPEVTCVVVDVSQEDPEVQFNWYVDGVEVHNAKTKPREEQFNSTYRVVSVLTVLHQDWLNGKEYKCKVSNKGLPSSIEKTISKAKGQPREPQVCTLPPSQEEMTKNQVSLSCAVKGFYPSDIAVEWESNGQPENNYKTTPPVLDSDGSFFLVSRLTVDKSRWQEGNVFSCSVMHEALHNRFTQKSLSLSL light: DIVLTQSPATLSLSPGERATLSCRASQSVSYMNWYQQKPGKAPKRWIYDTSKVASGVPARFSGSGSGTDYSLTINSLEAEDAATYYCQQWSSNPLTFGGGTKVEIK |
| 102 | 101 | 106 | 98.2 | 103 | 100 | 104 | 104 | 312 (TA7), configuration of FIG. 1X (bispecific antibody, not shown: kappa light chain constant domain (CL)) heavy: EVQLVQSGAEVKKPGASVKVSCKASGFTFTSYYIHWVRQAPGQGLEWIGWIYPENDNTKYNEKFKDRVTITADTSTSTAYLELSSLRSEDTAVYYCARDGYSRYYFDYWGQGTLVTVSSASTKGPSVFPLAPCSRSTSESTAALGCLVKDYFPEPVTVSWNSGALTSGVHTFPAVLQSSGLYSLSSVVTVPSSSLGTKTYTCNVDHKPSNTKVDKRVESKYGPPCPPCPAPEAAGGPSVFLFPPKPKDTLMISRTPEVTCVVVDVSQEDPEVQFNWYVDGVEVHNAKTKPREEQFNSTYRVVSVLTVLHQDWLNGKEYKCKVSNKGLPSSIEKTISKAKGQPREPQVYTLPPCQEEMTKNQVSLWCLVKGFYPSDIAVEWESNGQPENNYKTTPPVLDSDGSFFLYSRLTVDKSRWQEGNVFSCSVMHEALHNHYTQKSLSLSLGGGGSGGGGSEVQLVESGGGFVQAGESLTLSCTSSTLTFTPYRMAWYRQAPGKQRDLVADISSGDGRTTNYADFAKGRFTISRDNIKNTVFLRMTNLKPEDTAVYYCNTFVSFVGIARSWGQGTQVTVSS ESKYGPPCPPCPAPEAAGGPSVFLFPPKPKDTLMISRTPEVTCVVVDVSQEDPEVQFNWYVDGVEVHNAKTKPREEQFNSTYRVVSVLTVLHQDWLNGKEYKCKVSNKGLPSSIEKTISKAKGQPREPQVCTLPPSQEEMTKNQVSLSCAVKGFYPSDIAVEWESNGQPENNYKTTPPVLDSDGSFFLVSRLTVDKSRWQEGNVFSCSVMHEALHNRFTQKSLSLSL light: DIVMTQSPDSLAVSLGERATINCKSSQSLLNSRTRKNYLAWYQQKPGQSPKLLIYWTSTRKSGVPDRFSGSGSGTDFTLTISSLQAEDVAVYYCKQSFILRTFGQGTKVEIK |
